Data reported in the RNAGym collection of RNA variant scans (doi:10.7554/elife.80360).

B1: HDV Ribozyme (parent)
chain: GGCCGGCAUGGUCCCAGCCUCCUCGCUGGCGCCGGCUGGGCAACAUUCCGAGGGGACCGUCCCCUCGGUAAUGGCGAAUGGGACCCA

Variants of: B1
Test: self-cleavage, relative activity (ratio to wild type); higher = more cleavage; co-transcriptional

First: U9C C44A
Second: U9C C44U
The self-cleavage of the first is lower: 0.594 for the first, 0.739 for the second.

Compared with G10A C41G, G10A C41U is lower in self-cleavage: 0.68 for the first, 0.607 for the second.

Going from U9C C19U to U9C C19G, the self-cleavage falls from 0.208 to 0.0519.

First: U9C G54A
Second: U9A G55C
The self-cleavage of the first is lower: 1.08 for the first, 1.26 for the second.

First: U9G C85U
Second: U9G C85G
The self-cleavage of the first is higher: 1.14 for the first, 0.895 for the second.

Compared with G10A C13G, U9A G67A is higher in self-cleavage: 0.104 for the first, 0.937 for the second.

First: U9A G67U
Second: U9C C22U
The self-cleavage of the first is higher: 0.849 for the first, 0.727 for the second.

Compared with U9C C22G, G10A C21G is higher in self-cleavage: 0 for the first, 0.126 for the second.

Going from G10A C21U to G10A C21A, the self-cleavage falls from 0.0453 to 0.

Compared with U9C C85G, U9C C85U is higher in self-cleavage: 0.731 for the first, 1.07 for the second.

Compared with U9A G80C, U9A G80A is higher in self-cleavage: 0.189 for the first, 0.402 for the second.

First: U9G G39C
Second: U9G G39U
The self-cleavage of the first is lower: 0.196 for the first, 0.807 for the second.

Going from U9G U79G to U9G U79C, the self-cleavage falls from 0.923 to 0.748.

First: U9G C58G
Second: U9A G81U
The self-cleavage of the first is higher: 1.02 for the first, 0.332 for the second.

First: U9A U37C
Second: U9G A51U
The self-cleavage of the first is lower: 1.07 for the first, 1.22 for the second.

Going from U9G A51C to U9G A51G, the self-cleavage falls from 1.03 to 0.95.

Going from U9G A42C to U9C G74A, the self-cleavage rises from 0.453 to 0.653.

Going from U9C C36G to U9G C32A, the self-cleavage rises from 0 to 0.277.

First: U9G C32U
Second: G10A C24A
The self-cleavage of the first is higher: 0.623 for the first, 0.367 for the second.

First: G10A C15G
Second: U9G A77C
The self-cleavage of the first is lower: 0.166 for the first, 0.185 for the second.

First: U9A U23G
Second: G10A C32A
The self-cleavage of the first is higher: 0.7 for the first, 0.153 for the second.

Compared with G10A C32G, G10A C32U is higher in self-cleavage: 0.0966 for the first, 0.652 for the second.

Going from U9G G81C to U9G A56U, the self-cleavage rises from 0.443 to 1.01.

Going from U9C G31C to U9G G74U, the self-cleavage falls from 0.598 to 0.415.

Going from U9A G38A to U9A G38U, the self-cleavage rises from 0.233 to 0.237.

First: U9A G38C
Second: G10A A51C
The self-cleavage of the first is lower: 0.237 for the first, 0.623 for the second.

Compared with G10A A51G, U9C C30G is lower in self-cleavage: 0.546 for the first, 0.0462 for the second.

Compared with U9C G81U, U9C G81A is higher in self-cleavage: 0.237 for the first, 0.415 for the second.

Compared with U9A G29U, U9A G29A is higher in self-cleavage: 0.0639 for the first, 0.0678 for the second.

Going from U9A G59A to U9A G59C, the self-cleavage falls from 1.19 to 1.03.

Compared with U9C C64U, U9A U69A is lower in self-cleavage: 0.923 for the first, 0.87 for the second.

Compared with U9A U69C, U9G C22G is lower in self-cleavage: 0.802 for the first, 0.208 for the second.

Going from U9C G17A to U9C G17U, the self-cleavage falls from 1.08 to 0.914.

First: U9C G17C
Second: U9G C62G
The self-cleavage of the first is lower: 0.415 for the first, 0.462 for the second.

Going from U9A G73U to U9A G73A, the self-cleavage rises from 0.244 to 0.425.

First: U9A G73C
Second: U9G U60C
The self-cleavage of the first is lower: 0.227 for the first, 0.748 for the second.

First: U9G U60A
Second: U9G G55U
The self-cleavage of the first is lower: 0.831 for the first, 1.05 for the second.

Going from U9G G55C to U9G G28A, the self-cleavage falls from 0.665 to 0.0573.

Compared with U9G G28C, U9G U69C is higher in self-cleavage: 0.222 for the first, 1.25 for the second.

Compared with G10A A56U, U9G U27C is lower in self-cleavage: 0.845 for the first, 0.68 for the second.

Going from U9G U27G to U9G U27A, the self-cleavage falls from 0.935 to 0.437.

First: G10A C36U
Second: G10A C36A
The self-cleavage of the first is higher: 0.396 for the first, 0.0687 for the second.

Going from U9A U79G to U9A U79C, the self-cleavage falls from 0.529 to 0.237.

First: U9C C26A
Second: U9A U27G
The self-cleavage of the first is higher: 1.25 for the first, 1.13 for the second.

U9C G76U and U9C G76A are the same in self-cleavage: 1.05 for the first, 1.05 for the second.

Compared with U9A U20A, U9A U20C is lower in self-cleavage: 0.185 for the first, 0.128 for the second.

Going from U9A U20G to U9C A71C, the self-cleavage rises from 0.151 to 0.791.

Compared with U9C A71U, U9C C57A is higher in self-cleavage: 0.969 for the first, 1.09 for the second.

Going from U9G G38C to U9G G38U, the self-cleavage falls from 0.302 to 0.

First: U9G G10C
Second: U9G G10U
The self-cleavage of the first is lower: 0.489 for the first, 0.987 for the second.

Compared with G10A C14U, U9C G38C is lower in self-cleavage: 0.59 for the first, 0.107 for the second.

First: U9A G74U
Second: U9A G74C
The self-cleavage of the first is higher: 0.585 for the first, 0.0573 for the second.

First: U9G A43U
Second: G10A A16G
The self-cleavage of the first is higher: 0.886 for the first, 0.584 for the second.

Compared with G10A A16U, G10A A16C is lower in self-cleavage: 0.929 for the first, 0.867 for the second.

Compared with U9G U23A, U9G U23C is higher in self-cleavage: 0.782 for the first, 0.923 for the second.

First: U9G U23G
Second: U9G G82U
The self-cleavage of the first is higher: 0.95 for the first, 0.767 for the second.

First: U9G A83G
Second: U9G A83C
The self-cleavage of the first is lower: 0.525 for the first, 0.554 for the second.

Compared with U9G A83U, U9G C19U is lower in self-cleavage: 0.453 for the first, 0.119 for the second.

First: U9G C19G
Second: U9A G25U
The self-cleavage of the first is lower: 0 for the first, 0.175 for the second.

Going from U9A G25A to U9G A78C, the self-cleavage falls from 0.426 to 0.208.

First: U9G A78G
Second: U9G G76C
The self-cleavage of the first is lower: 0.166 for the first, 1.14 for the second.

Going from U9G G76A to U9G G76U, the self-cleavage falls from 1.23 to 1.13.

First: U9C C18G
Second: U9C C18U
The self-cleavage of the first is lower: 0.138 for the first, 0.457 for the second.

Going from U9C C18A to U9A G35A, the self-cleavage rises from 0.128 to 0.665.

Compared with U9A G35C, U9A G50U is higher in self-cleavage: 0.44 for the first, 1.31 for the second.

Going from U9A G50C to U9A G50A, the self-cleavage rises from 0.898 to 1.12.

First: U9C C49G
Second: U9C C49U
The self-cleavage of the first is higher: 1.03 for the first, 0.959 for the second.

Going from U9C C49A to U9G C30G, the self-cleavage falls from 0.703 to 0.145.

Compared with U9G C30U, U9C U37C is higher in self-cleavage: 0.853 for the first, 0.978 for the second.

Going from U9C U72G to U9C C66G, the self-cleavage rises from 0.582 to 1.04.

U9C C13G and U9C C13A are the same in self-cleavage: 0.158 for the first, 0.158 for the second.

First: U9C C13U
Second: U9C G40C
The self-cleavage of the first is higher: 0.453 for the first, 0.135 for the second.

Compared with U9C G40A, U9G G11U is lower in self-cleavage: 0.997 for the first, 0.532 for the second.

First: U9G G11C
Second: U9C G39C
The self-cleavage of the first is higher: 0.594 for the first, 0.287 for the second.

Going from U9C A51G to U9C G59A, the self-cleavage rises from 0.962 to 1.05.

Compared with U9C G59U, U9C G59C is lower in self-cleavage: 1.17 for the first, 1.09 for the second.

Going from U9C C84U to U9G G73U, the self-cleavage falls from 0.415 to 0.0831.

Compared with G10A C22G, G10A C22U is higher in self-cleavage: 0.0171 for the first, 0.157 for the second.

Compared with G10A C22A, U9A G11C is higher in self-cleavage: 0.0528 for the first, 0.609 for the second.

Compared with U9A U72C, U9A U72G is higher in self-cleavage: 0.688 for the first, 0.787 for the second.

First: U9C C14A
Second: U9C G10U
The self-cleavage of the first is higher: 0.982 for the first, 0.731 for the second.

Going from U9C C32A to U9C C32U, the self-cleavage rises from 0 to 0.862.

First: G10A A70U
Second: U9A G76C
The self-cleavage of the first is lower: 0.533 for the first, 1.07 for the second.

With U9A G76A the self-cleavage was 0.955.
